Our source for the Kd values is patent EP4388012A1 (dated 2024).

The target of assay [1] is T1, soluble HLA-E-VL9 complex (HLA-E*01:03 heavy chain refolded with b2M and synthetic VL9 peptide) (human).
Assay [2] addresses T1, soluble HLA-E-VL9 complex (HLA-E*01:03 …). The assay can be described thus: SPR, antibody immobilized on CM5 chip, soluble HLA-E-VL9 flowed, 1:1 model.

Read-outs that look alike come from different tables or passages of the source.

B1: 3H4, murine HLA-E-VL9-specific IgM monoclonal antibody (antibody, V domains shown)
VH: EVQLQESGPELVKPGASVKIPCKASGYTFTDYNMDWVKQSHGKSLEWIGDINPNNGGTIYNQKFKGKATLTVDKSSSTAYMELRSLTSEDTAVYYCARPDYYGSSYGWYFDVWGTGTTVTVSS
VL: DIVITQSPSSMYASLGERVTITCKASQDINSYLSWFQQKPGKSPKTLIYRANRLVDGVPSRFSGSGSGQDYSLTISSLEYEDMGIYYCLQYDEFPLTFGAGTKLELK
notes: also called mAb 3H4; 3H4 IgM
Regarding B1, binding in assay [1] was characterised by a dissociation constant (Kd) of 8.1 µM.

B2: 3H4 as a recombinant human IgG1 (unoptimized, wild-type 3H4 on a human IgG1 backbone, 3H4 Gwt) (antibody, V domains shown)
VH: B1 VH
VL: B1 VL
notes: also called 3H4 IgG; wild-type 3H4 IgG
Take B2: in assay [2], the Kd (usually the free concentration of one partner at which half of the binding sites on the other are occupied at equilibrium, for simple one-to-one binding) turned out to be 49.8 µM.
